Source: PMC5739296

Biological target: Villin-1 (human (endogenous in HepG2)) (UniProt P09327)
Assay: co-IP

Sequence of UniProt P09327 (P09327 whole entry): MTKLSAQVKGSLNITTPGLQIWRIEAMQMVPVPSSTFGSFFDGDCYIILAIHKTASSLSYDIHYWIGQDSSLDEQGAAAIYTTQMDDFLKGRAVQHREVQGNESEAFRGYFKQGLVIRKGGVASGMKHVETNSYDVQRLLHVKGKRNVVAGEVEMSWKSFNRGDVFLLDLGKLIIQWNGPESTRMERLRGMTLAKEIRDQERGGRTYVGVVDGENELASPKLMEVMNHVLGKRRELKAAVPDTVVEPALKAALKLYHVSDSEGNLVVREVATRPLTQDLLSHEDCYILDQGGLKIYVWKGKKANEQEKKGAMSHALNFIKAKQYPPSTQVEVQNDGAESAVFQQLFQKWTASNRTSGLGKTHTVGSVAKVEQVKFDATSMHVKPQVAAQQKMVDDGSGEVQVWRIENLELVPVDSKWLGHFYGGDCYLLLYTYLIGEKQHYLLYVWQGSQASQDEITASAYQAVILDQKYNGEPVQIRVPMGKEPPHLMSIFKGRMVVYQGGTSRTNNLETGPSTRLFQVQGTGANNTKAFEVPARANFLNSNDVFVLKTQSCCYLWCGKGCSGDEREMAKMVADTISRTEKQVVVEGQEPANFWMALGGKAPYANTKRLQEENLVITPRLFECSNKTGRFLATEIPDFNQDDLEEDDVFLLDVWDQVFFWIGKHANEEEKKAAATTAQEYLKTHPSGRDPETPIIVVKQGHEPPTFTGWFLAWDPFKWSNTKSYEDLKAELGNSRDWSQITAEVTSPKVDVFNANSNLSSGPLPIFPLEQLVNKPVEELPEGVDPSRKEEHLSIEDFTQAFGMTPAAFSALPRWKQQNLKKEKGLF

fold change of co-precipitated actin after fusion against control: 28.7 fold
Substance: ß-actin (actin, cytoplasmic 1, ACTB) (from UniProt P60709 1-375) (natural protein)
